What all share (assay): cell-based or functional assay
The target of assay [1] is HIV-1 Env of pseudovirus 3415.v1.c1 (HIV-1).
Assay [2] has as its target HIV-1 Env of pseudovirus 6240_08_TA5_4622 (HIV-1).
The target of assay [3] is HIV-1 Env of pseudovirus 9004SS_A3_4 (HIV-1).
The target in assay [4] is HIV-1 Env of pseudovirus C4118.c09 (HIV-1).
The target in assay [5] is HIV-1 Env of pseudovirus CNE20 (HIV-1).
In assay [6] the target is HIV-1 Env of pseudovirus HIV-001428-2.42 (HIV-1).
For assay [7], the target named is HIV-1 Env of pseudovirus T257-31 (HIV-1).

Some results are limits rather than exact numbers.

For orientation: IC50 means the concentration needed to halve the response being measured. Lower therefore signals greater potency in that assay. As a reminder, the IC80 is the concentration at which the effect reaches the 80% level.

For 3BNC117 (antibody), the neutralization IC50 in assay [1] was 0.17 µg/mL; in assay [2], 0.33 µg/mL; in assay [3], 0.07 µg/mL; in assay [5], > 50 µg/mL; in assay [6], 0.003 µg/mL; in assay [7], 0.06 µg/mL. The neutralization IC80 is 0.47 µg/mL in assay [1]; 1.17 µg/mL in assay [2]; 0.18 µg/mL in assay [3]; > 50 µg/mL in assay [5]; 0.02 µg/mL in assay [6]; 0.37 µg/mL in assay [7]. This substance displayed an IC50, titer in TZM.bl cells in assay [4] of 0.09 µg/mL. Also, in assay [4], the IC80, titer in TZM.bl cells worked out at 0.52 µg/mL.
As to 8ANC195 (antibody), the neutralization IC50 in assay [2] was > 50 µg/mL; in assay [3], 0.17 µg/mL; in assay [5], 0.5 µg/mL; in assay [6] it was > 50 µg/mL; in assay [7], 0.32 µg/mL. Besides, the neutralization IC80 in assay [2] was > 50 µg/mL; in assay [3], 0.81 µg/mL; in assay [5], 3.19 µg/mL; in assay [6], > 50 µg/mL; in assay [7], 3.89 µg/mL. Also, the IC50, titer in TZM.bl cells in assay [4] was 0.2 µg/mL. Besides, the IC80, titer in TZM.bl cells in assay [4] amounted to 0.71 µg/mL.
For N49P6 (antibody), the half-inhibitory concentration (IC50) in assay [1] was found to be 0.188 µg/mL; in assay [2] it was 0.567 µg/mL; in assay [3], 0.181 µg/mL; in assay [4] it was 0.092 µg/mL; in assay [5], 2.74 µg/mL; in assay [6], 0.016 µg/mL. The substance further had an IC50 in assay [7] of 0.147 µg/mL. Moreover, the IC80 in assay [1] was 0.648 µg/mL; in assay [2], 1.76 µg/mL; in assay [3] it was 0.817 µg/mL; in assay [4], 0.243 µg/mL; in assay [5], 15.6 µg/mL; in assay [6], 0.05 µg/mL. Moreover, the IC80 in assay [7] stood at 0.535 µg/mL. Further, the MPI was found to be 100 in assay [1]; 100 in assay [2]; 100 in assay [3]; 100 in assay [4]; 95 in assay [5]; 100 in assay [6]. The substance further registered an MPI in assay [7] of 100.
On to NIH 45-46 (antibody), for which the neutralization IC50 in assay [1] is 0.07 µg/mL; in assay [2] it was 0.44 µg/mL; in assay [3], 0.18 µg/mL; in assay [5], 8.71 µg/mL; in assay [6] it was < 0.001 µg/mL; in assay [7] it was 0.23 µg/mL. In addition, the neutralization IC80 in assay [1] stood at 0.07 µg/mL; in assay [2], 1.55 µg/mL; in assay [3], 0.65 µg/mL; in assay [5] it was 47 µg/mL; in assay [6] it was 0.01 µg/mL; in assay [7], 1.11 µg/mL. Also, the IC50, titer in TZM.bl cells in assay [4] was 0.14 µg/mL. The substance further yielded an IC80, titer in TZM.bl cells in assay [4] of 0.91 µg/mL.
For PGDM1400 (antibody), the IC50 is > 50 µg/mL in assay [2]; < 0.001 µg/mL in assay [3]; 0.004 µg/mL in assay [5]; < 0.001 µg/mL in assay [6]; 0.002 µg/mL in assay [7]. In addition, the IC80 in assay [2] was > 50 µg/mL; in assay [3], 0.002 µg/mL; in assay [5], 0.014 µg/mL; in assay [6], 0.027 µg/mL; in assay [7], 0.031 µg/mL. Moreover, in assay [4], the IC50, titer in TZM.bl cells was 0.002 µg/mL. For the same substance, the IC80, titer in TZM.bl cells in assay [4] was determined as 0.005 µg/mL.
Consider PGT121 (antibody), for which the IC50 is 0.033 µg/mL in assay [2]; < 0.001 µg/mL in assay [3]; > 50 µg/mL in assay [4]; < 0.001 µg/mL in assay [5]; 0.014 µg/mL in assay [6]; > 50 µg/mL in assay [7]. Also, the IC80 in assay [2] is 0.127 µg/mL; in assay [3] it was 0.003 µg/mL; in assay [4] it was > 50 µg/mL; in assay [5], 0.002 µg/mL; in assay [6], 0.051 µg/mL; in assay [7], > 50 µg/mL.
Take PGT128 (antibody): the IC50 was 0.019 µg/mL in assay [2]; 0.002 µg/mL in assay [3]; 0.001 µg/mL in assay [5]; 0.026 µg/mL in assay [6]; > 50 µg/mL in assay [7]. Also, the IC80 in assay [2] was 0.055 µg/mL; in assay [3], 0.01 µg/mL; in assay [5], 0.004 µg/mL; in assay [6] it was 0.095 µg/mL; in assay [7], > 50 µg/mL. Moreover, the IC50, titer in TZM.bl cells in assay [4] was > 50 µg/mL. For the same substance, in assay [4], the IC80, titer in TZM.bl cells is > 50 µg/mL.
Regarding PGT145 (antibody), the half-maximal inhibitory concentration (IC50) was > 50 µg/mL in assay [2]; 0.018 µg/mL in assay [3]; 0.318 µg/mL in assay [5]; 0.001 µg/mL in assay [6]; 5.18 µg/mL in assay [7]. Besides, the IC80 in assay [2] was > 50 µg/mL; in assay [3], 0.419 µg/mL; in assay [5], 6.97 µg/mL; in assay [6], 0.083 µg/mL; in assay [7], > 50 µg/mL. For the same substance, the IC50, titer in TZM.bl cells in assay [4] is < 0.001 µg/mL. In assay [4], the IC80, titer in TZM.bl cells was found to be 0.004 µg/mL.
Turning to PGT151 (antibody), the IC50 is 0.046 µg/mL in assay [2]; 0.003 µg/mL in assay [3]; > 50 µg/mL in assay [5]; 0.027 µg/mL in assay [6]; 0.003 µg/mL in assay [7]. Further, the IC80 is 0.42 µg/mL in assay [2]; 0.015 µg/mL in assay [3]; > 50 µg/mL in assay [5]; > 50 µg/mL in assay [6]; 0.01 µg/mL in assay [7]. The IC50, titer in TZM.bl cells in assay [4] was > 50 µg/mL. The IC80, titer in TZM.bl cells in assay [4] was > 50 µg/mL.
VRC01 (antibody): the IC50, titer in TZM.bl cells in assay [1] is 0.06 µg/mL; in assay [2], 0.61 µg/mL; in assay [6] it was 0.02 µg/mL; in assay [7], 2.8 µg/mL. For the same substance, the IC80, titer in TZM.bl cells turned out to be 0.15 µg/mL in assay [1], 1.82 µg/mL in assay [2], 0.06 µg/mL in assay [6] and 8.66 µg/mL in assay [7].
With VRC07 (antibody), the neutralization IC50 in assay [1] is 0.036 µg/mL; in assay [2] it was 0.448 µg/mL; in assay [3], 0.218 µg/mL; in assay [5], 0.06 µg/mL; in assay [6], 0.004 µg/mL; in assay [7] it was 0.421 µg/mL. For the same substance, the neutralization IC80 in assay [1] was 0.152 µg/mL; in assay [2], 1.54 µg/mL; in assay [3] it was 0.75 µg/mL; in assay [5], 0.129 µg/mL; in assay [6] it was 0.016 µg/mL; in assay [7], 3.17 µg/mL. For the same substance, the IC50, titer in TZM.bl cells in assay [4] was 0.121 µg/mL. Moreover, in assay [4], the IC80, titer in TZM.bl cells is 0.444 µg/mL.

(Values after US20230002480A1.)
